According to article doi:10.1101/2022.07.22.501097v1 (biorxiv, 2022):

T1: BglC (Thermobifida fusca, UniProt Q9LAV5)
T1 sequence (Q9LAV5 1-484): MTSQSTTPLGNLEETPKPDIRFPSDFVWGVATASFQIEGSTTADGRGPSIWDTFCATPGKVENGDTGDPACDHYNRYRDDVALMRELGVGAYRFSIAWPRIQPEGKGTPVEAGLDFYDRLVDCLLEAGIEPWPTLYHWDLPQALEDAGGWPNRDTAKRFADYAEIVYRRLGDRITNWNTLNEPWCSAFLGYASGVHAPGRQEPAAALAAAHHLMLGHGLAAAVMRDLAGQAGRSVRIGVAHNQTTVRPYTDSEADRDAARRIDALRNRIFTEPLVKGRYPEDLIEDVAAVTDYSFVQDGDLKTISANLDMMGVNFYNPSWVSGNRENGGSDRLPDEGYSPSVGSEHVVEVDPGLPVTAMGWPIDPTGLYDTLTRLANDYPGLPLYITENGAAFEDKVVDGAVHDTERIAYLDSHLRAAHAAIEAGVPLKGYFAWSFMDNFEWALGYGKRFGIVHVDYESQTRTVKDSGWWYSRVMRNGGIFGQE

B1: BglC (Thermobifida fusca) (protein)
chain: T1 sequence (Q9LAV5 1-484)

Tests used:
BglC = target: T1, BglC; assay: 4-nitrophenol release at […] nm, continuous plate assay, non-linear regression; assay type: biochemical
purified protein = substrate: O=[N+]([O-])c1ccc(O[C@@H]2O[C@H](CO)[C@@H](O)[C@H](O)[C@H]2O)cc1; assay: purified protein; details: 100 mM sodium phosphate pH 7.0, 37 °C, 2.63 nM enzyme

Molecule	Ki (BglC)	Km (purified protein)	kcat (purified protein)
O=C1O[C@H](CO)[C@@H](O)[C@H](O)[C@H]1O [D-glucono-δ-lactone]	6.63 ± 1.3 µM		
B1		0.56 ± 0.01 mM	48.68 s⁻¹
